The record followed here is US20200376136A1.

Experiment [1] has as its target cynomolgus CD3 (cynomolgus monkey) (UniProt Q95LI5). As to the kind of experiment: cell-based or functional assay.
Experiment [2] shares this target. Description: FACS titration on purified cynomolgus T cells.
Experiment [3] shares this target. Description: FACS titration of cynomolgus T cells.

For orientation: EC50 means the concentration needed to bring the measured effect to its halfway point. Low readings indicate higher potency in that assay, high ones lower potency in that assay.

Changes are numbered by the printed parent chain.

B1: BSSTEAP2/CD3-001 (bispecific antibody, IgG4, V domains shown)
VH 1: QVQLQQSGPGLVKPSQTLSLTCAISGDSVSSNRAAWNWIRQSPSRGLQWLGRTYYRSKWYNDYAVSLRSRITINPVTSKNQVALHMNSVTPEDTAVYYCARAGIVVVPGPETFYYYDHGLDVWGQGTTVTVSS
VH 2: EVQLVESGGGLVQPGRSLRLSCAASGFTFDDYSMHWVRQAPGKGLEWVSGISWNSGSKGYADSVKGRFTISRDNAKNSLYLQMNSLRAEDTALYYCAKYGSGYGKFYHYGLDVWGQGTTVTVSS
VL: DIQMTQSPSSLSASVGDRVTITCRASQSIRSYLNWYQQKPGKAPELLIHAASSLQSGVPSRFSGSGSGTDFTLTISSLQPEDFASYYCQQSYSAPPITFGQGTRLEIK
B1 displayed a Cyno PBMC Proliferation [M] (donor) in experiment [1] of 4.59e-12 M. The EC50 in experiment [2] came to 7.27 nM.

B2: BSSTEAP2/CD3-006 (bispecific antibody, V domains shown)
VH 1: B1 VH 1
VH 2: B1 VH 2 with A23V, G59D
VL: B1 VL
B2 had a Cyno PBMC Proliferation [M] (donor) in experiment [1] of 1.53e-11 M. This molecule also yielded a concentration giving a half-maximal response (EC50) in experiment [2] of 7.99 nM.

B3: BSSTEAP2/CD3-007 (bispecific antibody, V domains shown)
VH 1: B1 VH 1
VH 2: EVQLVESGGGLVQPGRSLRLSCAASGFTFADYTMHWVRQAPGKGLEWVSDISWNSGSIAYADSVKGRFTISRDNAKNSLYLQMNSLRTEDTAFYYCAKDSRGYGHYKYLGLDVWGQGTTVTVSS
VL: B1 VL
As for B3, in experiment [2], the half-maximal effective concentration (EC50) worked out at 17.3 nM.

B4: CD3-VH-P (antibody, V domains shown)
VH: B1 VH 2 with A23V, G59D
VL: DIQMTQSPSSLSASVGDSVTITCRASQSINNYLNWYQQKPGKAPKLLIYTASSLLSGVPSRFSGSGSGTDFTLTISGLHPEDFATYFCQQSFSTPPITFGQGTRLDIK
Consider B4, for which the EC50 in experiment [3] lay in the range of 1 to 40 nM.

B5: BSSTEAP2/CD3-004 (bispecific antibody, IgG4, V domains shown)
VH 1: QVQLVESGGGVVQPGRSLRLSCVASGFTISSYGMNWVRQAPGKGLEWVAVISYDGGNKYSVDSVKGRFTISRDNSKNTLYLQMNSLRAEDSAVYYCARGRYFDLWGRGTLVTVSS
VH 2: EVQLVESGGGLVQPGRSLRLSCAASGFTFADYTMHWVRQGPGTGLEWVSDIGWSGGSLGYADSVKGRFTISRDNAKNSLYLEMNNLRPEDTALYYCVKDKSGYGKFQYGLDVWGQGTTVTVSS
VL: DIQMTQSPSTLSASVGDRVTITCRASQSISSWLAWYQQKPGRAPNLLISKASSLKSGVPSRFSGSGSGTEFTLTVSSLQPDDFATYYCQQYYSYSYTFGQGTKLEIK
As for B5, the EC50 in experiment [2] worked out at 1.99 nM.
